Assay results taken from patent publication US11466255B2, “Methods and compositions for converting non-endocrine pancreatic tissue into insulin-producing cells” (UNIVERSITY OF MIAMI, priority 2015, dated 2022).

Experiments:
Format in all cases: cell-based, human
hNEPT [1] = assay: Glucose-stimulated insulin secretion (GSIS) and perifusion; settings: day 12; 2.5 mM vs 20 mM glucose
Procedure: Glucose-stimulated insulin release (GSIR) and total insulin determination: GSIR was performed in six-well plate cultures. BMP-7-treated samples and untreated controls were washed twice with DMEM medium containing 2.5 mM glucose (Low glucose medium or L-medium). Upon addition of 2 ml of the same medium, the cells were cultured for 1 h at 37° C. to bring their insulin secretion to baseline. After 2 more washes, 1 ml of L-medium was added and the cells were returned to the incubator for 1 h. At the end of incubation period, the medium was collected and the cells exposed for 1 h to 1 ml of 20 mM glucose DMEM medium (high glucose medium or H-medium). After the collection of the H-medium supernatant, the cells were washed three times with L-medium and cultured again in low glucose conditions for 1 h. As before, supernatant was collected at the end of the incubation period. The second low glucose incubation is necessary to confirm that the cells are responding to glucose concentration changes in a physiological manner and not dumping insulin. […] The lysates and the supernatants from GSIR test were evaluated with ELISA for C-peptide content (Mercodia, Uppsala, Sweden) following manufacturer's instructions. […]
Perifusion studies: Perifusion was performed as described58. […] Insulin release was determined with the Human Insulin ELISA Mercodia Kit (Uppsala, Sweden) following the manufacturer's instructions.

pure islet preparations = assay: Pure islet preparations treated with BMP-7 (colony formation); settings: n=3
hNEPT [2] = assay: hNEPT culture exposed to BMP-7: cluster/colony formation and DNA content
Procedure: Fresh hNEPT preparations were allowed to attach to tissue culture-treated plates for 48 h and subsequently exposed to BMP-7. The rationale behind the use of BMP-7 was that it may help reduce the incidence of EMT in cultured pancreatic exocrine tissue, as EMT has proven an obstacle for the formation of endocrine cells from exocrine cells in a similar setting^7. Control aliquots were cultured in the same conditions but without BMP-7. […] The growth of the colonies in the BMP-7 group was followed by in situ live cell imaging (Incucyte Zoom) (FIG. 1b and FIG. 8). This increase in size was paralleled by an average increase of 4.8-fold in DNA content from the time of attachment to day 12 (n=2), which further evidenced active cell proliferation.
hNEPT culture: Human islets were isolated at the DRI's cGMP facility following methods already described54, and hNEPT samples (2-4 ml) were obtained as an isolation byproduct. […]
Real-time colony growth assessment: In order to observe the formation and growth of the colonies we used an IncuCyteZOOM EssenBiosciences instrument (Ann Arbor, Michigan) within a Symphony Incubator purchased from VWR (Atlanta Ga.). The cells remain in their own culturing flask or plate, where growth can be observed and quantified over time. […]

[3] = tested on: P2RY1+/ALK3+ sorted cells; assay: Sorted P2RY1+/ALK3+ cells treated with BMP-7 with or without dorsomorphin; settings: 100 ng/μl BMP-7, qRT-PCR and IF
Procedure: A 2-color FACS selection for dissociated hNEPT (as well as collagenase-digested MPDs) that are positive for the surface markers P2RY1 and ALK3 (Life Span Biosciences) is conducted. This approach has already been successfully tested, as is shown herein. Sorted cells are treated with 100 ng/μl of BMP-7 with or without dorsomorphin, which inhibits BMP signaling. Additional aliquots receive no treatment. […] This is determined by qRT-PCR and IF as above, as well as ultrastructural analyses by TEM.

hNEPT [4] = assay: C-peptide content (ELISA, normalised to DNA) of hNEPT; settings: for induction of C-peptide compared to t=0: n=4, P=0.06
Procedure: hNEPT culture: Human islets were isolated at the DRI's cGMP facility following methods already described54, and hNEPT samples (2-4 ml) were obtained as an isolation byproduct. The cells were washed and seeded on tissue culture-treated plates in FBS- and trypsin inhibitor-supplemented RPMI 1640 medium (Gibco-Life Technologies, Grand Island, N.Y.). After 48 h, floating cells were removed with fresh medium replacement. The following day, cultures were either treated with 100 ng/ml BMP-7 (ProSpec-Tany TechnoGene; Ness Ziona, Israel) or remained in the starting medium as controls. Cells were allowed to grow 4-5 days and then the serum-containing medium was replaced by serum-free Advanced RPMI 1640 (Gibco-Life Technologies, Grand Island, N.Y.). Four to five days later the cells were either subjected to static incubation to evaluate their ability to respond to changing glucose concentration or collected for further assessments (such as C-peptide content, immunohistochemistry or cellular composition) or transplantation.
Glucose-stimulated insulin release (GSIR) and total insulin determination: GSIR was performed in six-well plate cultures. BMP-7-treated samples and untreated controls were washed twice with DMEM medium containing 2.5 mM glucose (Low glucose medium or L-medium). Upon addition of 2 ml of the same medium, the cells were cultured for 1 h at 37° C. to bring their insulin secretion to baseline. After 2 more washes, 1 ml of L-medium was added and the cells were returned to the incubator for 1 h. At the end of incubation period, the medium was collected and the cells exposed for 1 h to 1 ml of 20 mM glucose DMEM medium (high glucose medium or H-medium). After the collection of the H-medium supernatant, the cells were washed three times with L-medium and cultured again in low glucose conditions for 1 h. As before, supernatant was collected at the end of the incubation period. The second low glucose incubation is necessary to confirm that the cells are responding to glucose concentration changes in a physiological manner and not dumping insulin. After the last incubation, the cells were collected, washed in PBS and lysed with 1 ml of T-Per (Thermo Scientific, Rockford, Ill.). The lysates and the supernatants from GSIR test were evaluated with ELISA for C-peptide content (Mercodia, Uppsala, Sweden) following manufacturer's instructions. DNA content of the lysates was used to normalize the results (Pico-Green dsDNA Assay Kit, Life Technologies-Molecular Probes, Grand Island, N.Y.).

B1: BMP-7: 35 kDa homodimeric protein of the TGF-β superfamily; FDA-approved agent; human mature chain SEQ ID NO:1/2 (protein, listed as Homo sapiens)
chain: IRSTGSKQRSQNRSKTPKNQEALRMANVAENSSSDQRQACKKHELYVSFRDLGWQDWIIAPEGYAAYYCEGECAFPLNSYMNATNHAIVQTLVHFINPETVPKPCCAPTQLNAISVLYFDDSSNVILKKYRNMVVRACGCH
modifications: homodimer; human mature chain of BMP-7 (NCBI Reference Sequence NM_001719.2) comprising peptide from 293-431
hNEPT [1]
  glucose responsiveness of induced clusters: glucose responsive
Pure islet preparations
  colony formation: failed to give rise to colonies
hNEPT [2]; 100 ng/ml BMP-7, course of 12 days, controls became mesenchymal-like monolayers
  formation of cellular clusters: induced the formation of abundant cellular clusters
hNEPT [2]; BMP-7 group, n=2
  average increase in DNA content from the time of attachment to day 12: 4.8 fold
[3]
  expression of endocrine differentiation genes vs. control or BMP-7+dorsomorphin: induces the expression of endocrine differentiation genes
hNEPT [4]; BMP-4 vs BMP-7 comparison, n=6, P=0.43
  C-peptide production induction vs. t=0: 156±32 fold
hNEPT [4]; BMP-7 alone, dorsomorphin experiment
  induction of C-peptide compared to t=0: 314.1±152 fold
hNEPT [4]; BMP-7 in the presence of dorsomorphin (DM)
  induction of C-peptide compared to t=0: 107.8±34.3 fold
hNEPT [4]; THR-123 vs BMP-7 comparison, n=4, P=0.25
  C-peptide induction vs. t=0: 261±102 fold
hNEPT [4]; day 12 vs day 0, 8 independent hNEPT preparations
  average increase in total C-peptide vs. the initial material: two orders of magnitude
